Measurements: PMC3864954

Tests used:
Assay in all cases: ELISA; APP fragment (12.2 nM, 50 µL/well) plated at 4°C overnight; p75^NTR ECD-Fc or IgG-Fc added at the indicated concentrations for 2 h at room temperature; detected by anti-human IgG-Fc; EC50 from sigmoid dose-response curve
[1] = molecular target: C-sAPPα (sAPPα 304–612), recombinant, His-tagged (UniProt P05067)
[2] = molecular target: Soluble β-amyloid Precursor Protein Alpha (sAPPα), recombinant, His-tagged (UniProt P05067)
[3] = molecular target: sAPPβ, recombinant, His-tagged

Q: What does the source list for “recombinant p75^NTR extracellular domain fused to human Fc (p75^NTR ECD-Fc) chimera protein (from UniProt P08138 29-250) (Fc fusion)”?
A: EC50 [1]: 150 nM; EC50 [2]: 90 nM; EC50 [3]: 120 nM
